For two substances, percentage of conformationally intact CCR5 (CCR5 precipitated by 2D7 relative to that precipitated by 1D4) and EC50 results are on record in patent US20010034432A1.

Assay [1] addresses human CCR5 with a C-terminal glycine residue followed by the C9 nonapeptide tag (expressed from the (human; bovine) (UniProt P51681). Nature of the assay: immunoprecipitation from 35S-labeled Cf2Th/PACH/synCCR5 lysate in 1% DHPC, SDS-PAGE.
For assay [2] the target is unchanged. Nature of the assay: immunoprecipitation from 35S-labeled Cf2Th/PACH/synCCR5 lysate in 1% Cymal-5, SDS-PAGE.
The target is the same in assay [3]. Nature of the assay: immunoprecipitation from 35S-labeled Cf2Th/PACH/synCCR5 lysate in 1% Fos-Choline-14, SDS-PAGE.
For assay [4], the target named is cleavage-defective, cytoplasmic tail-truncated gp160 envelope glycoprotein of the YU2 HIV-1 primary (HIV-1 YU2 primary isolate; bovine) (UniProt P35961). Nature of the assay: FACS binding curves on gp160-expressing 293T cells and gp160-proteoliposomes. A general note: A flow cytometer gives signals particle by particle.
Sequence of UniProt P35961 (P35961 whole entry, the tested form may be a part): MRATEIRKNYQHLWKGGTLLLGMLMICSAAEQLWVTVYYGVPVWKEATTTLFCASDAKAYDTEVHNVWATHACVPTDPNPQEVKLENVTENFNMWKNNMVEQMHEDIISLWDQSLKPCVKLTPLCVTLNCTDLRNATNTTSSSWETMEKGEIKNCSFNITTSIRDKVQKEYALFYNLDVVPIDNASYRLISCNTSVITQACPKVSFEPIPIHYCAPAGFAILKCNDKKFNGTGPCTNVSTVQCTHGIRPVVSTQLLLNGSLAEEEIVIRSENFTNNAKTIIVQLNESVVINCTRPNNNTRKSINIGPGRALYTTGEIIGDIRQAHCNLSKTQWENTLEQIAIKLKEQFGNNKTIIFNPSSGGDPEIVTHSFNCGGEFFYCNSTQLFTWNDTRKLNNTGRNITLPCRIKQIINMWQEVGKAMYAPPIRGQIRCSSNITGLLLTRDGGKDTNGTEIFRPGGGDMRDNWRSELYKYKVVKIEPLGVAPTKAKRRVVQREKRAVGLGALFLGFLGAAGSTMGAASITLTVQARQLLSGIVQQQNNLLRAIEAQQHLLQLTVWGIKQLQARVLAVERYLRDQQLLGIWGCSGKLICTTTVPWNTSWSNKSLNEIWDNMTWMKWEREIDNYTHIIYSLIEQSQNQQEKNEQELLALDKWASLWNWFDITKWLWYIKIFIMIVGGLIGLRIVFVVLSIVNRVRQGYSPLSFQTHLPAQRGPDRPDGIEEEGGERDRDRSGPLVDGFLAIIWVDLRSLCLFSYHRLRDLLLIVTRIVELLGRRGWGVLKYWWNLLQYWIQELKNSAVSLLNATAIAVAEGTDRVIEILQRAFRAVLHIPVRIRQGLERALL

Sequence of UniProt P51681 (P51681 whole entry): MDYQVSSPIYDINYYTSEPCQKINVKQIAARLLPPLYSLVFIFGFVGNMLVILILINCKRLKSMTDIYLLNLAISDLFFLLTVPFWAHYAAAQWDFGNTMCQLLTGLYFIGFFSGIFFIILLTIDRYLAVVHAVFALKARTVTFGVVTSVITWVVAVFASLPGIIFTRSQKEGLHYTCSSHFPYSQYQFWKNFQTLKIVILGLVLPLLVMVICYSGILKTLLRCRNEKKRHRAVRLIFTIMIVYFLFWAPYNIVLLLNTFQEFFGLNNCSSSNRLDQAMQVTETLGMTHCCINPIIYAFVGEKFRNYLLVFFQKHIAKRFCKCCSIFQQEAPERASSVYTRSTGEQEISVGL

Consider “2D7 anti-CCR5 antibody (conformation-dependent)”, for which the values for the percentage of conformationally intact CCR5 (CCR5 precipitated by 2D7 relative to that precipitated by 1D4) in assay [1], in assay [2] and in assay [3] were 10%, 98% and 13%, respectively.
Broadly, the EC50 is the concentration giving half of the maximal effect. Lower therefore signals greater potency. On to CD4BS antibody IgGb12, for which the EC50 in assay [4] is below 1 µg/mL.
